Assay results: PMC12388516

Target: bovine thrombin (thrombin reagent) (bovine)

Substance	thrombin time (TT) clotting time of human plasma with bovine thrombin; hirudin HV1 at 0.32 and 3.2 µmol/L; expressed at 30 °C; cut-off 300 s [s]	thrombin time (TT) clotting time of human plasma with bovine thrombin; HLF1V at 0.32 and 3.2 µmol/L; expressed at 30 °C; cut-off 300 s [s]
recombinant hirudin HV1 expressed in E. coli strain SHuffle T7 (natural protein)	> 300	
recombinant hirudin-like factor HLF1V expressed in E. coli strain SHuffle T7 (natural protein)		> 300
